The values that follow come from article PMC13480645.

This experiment deals with MERS-CoV S2 stem helix peptide (MERS-CoV). The experiment can be described thus: BLI.

Sequence of S2P6 (antibody) (VH): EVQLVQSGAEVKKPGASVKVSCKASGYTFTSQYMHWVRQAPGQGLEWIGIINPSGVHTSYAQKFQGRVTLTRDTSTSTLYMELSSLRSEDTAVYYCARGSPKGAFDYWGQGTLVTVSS
Sequence of S2P6 (antibody) (VL): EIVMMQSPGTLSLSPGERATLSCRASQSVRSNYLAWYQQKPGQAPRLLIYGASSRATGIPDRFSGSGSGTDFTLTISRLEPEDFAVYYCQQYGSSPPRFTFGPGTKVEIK

As for S2P6 (antibody), the Kd is 0.723 nM and the kon came out at 315000 M⁻¹ s⁻¹.

In general, Kd refers to the constant that tells how readily two partners part at equilibrium. A lower Kd goes with a tighter complex. A word on the kon: it is a measure of how fast the partners come together. A high value points to faster complex formation.
